The assay concerns the target VEGFR2 (Homo sapiens, UniProt P35968). The assay is described as follows: pull-down binding assay with endogenous VEGFR2 from HUVEC lysates. Details: endogenous in cells; host or cells: HUVEC. The settings on record: HUVEC lysate, anti-VEGFR2 western blot. The text has this:
Truncated mutants of KIF13B were expressed in BL21 (DE3) or Rosetta-gami and purified as previously described (Yamada, et al. (2014) J. Cell Sci. 127:4518-30; Yamada, et al. (2007) Biochemistry 46:10039-45).
Using recombinant proteins, the binding sites on KIF13B mediating the interaction with VEGFR2 were identified. KIF13B has a motor, forkhead-associated, membrane-associated guanylate kinase-binding stalk, 2 domains of unknown function (DUFs) (DUF3694), and a proline-rich and cytoskeleton-associated protein glycine-rich domain. The DUFs were identified from amino acid sequence similarity on the Pfam database. It has been previously shown that both domains of DUF3694 directly bind recombinant VEGFR2 in vitro (Yamada, et al. (2007) Biochemistry 46:10039-45). To define the specific peptide sequence inhibiting VEGFR2 trafficking, further analysis of the second DUF3694 domain (DUF2, residues 1112-1281 of KIF13B) was carried out. This was based on stability of this domain and a sequence distinct from binding sites for other cargoes of KIF13B (Horiguchi, et al. (2006) J. Cell Biol. 174:425-436; Hanada, et al. (2000) J. Biol. Chem. 275:28774-2878). DUF2 was divided into 3 parts, DUF2A (residues […]), DUF2B (residues 1168-1216), and DUF2C (residues 1217-1281) and each part was expressed as a recombinant protein in bacteria. VEGFR2 was abundantly expressed in HUVECs; thus, cell lysate from HUVECs was incubated with these recombinant proteins on beads, and VEGFR2 binding was determined using the anti-VEGFR2 antibody.
To identify the minimum binding site on VEGFR2, DUF2C was further truncated (DUF2C1-9) (FIG. 1). […] Stability of the C5 peptide was attributed to the 4-6 C-terminal residues. Accordingly, replacing these C-terminal residues with another a peptide, one or more post-translational modifications, one or more non-natural amino acid residues, a macromolecule such as PEG, or a combination thereof, is expected to stabilize the KAI peptide.
Initially, peptide interaction with VEGFR2 was confirmed using the pull-down assay.
To further define the KIF13B residues involved in binding to VEGFR2, truncations of the DUF2C5 peptide were tested for binding to VEGFR2 (Table 3) and compared to binding of DUF2C5 and peptides flanking this region (FIG. 1).

Sequence of VEGFR2 (P35968 20-1356): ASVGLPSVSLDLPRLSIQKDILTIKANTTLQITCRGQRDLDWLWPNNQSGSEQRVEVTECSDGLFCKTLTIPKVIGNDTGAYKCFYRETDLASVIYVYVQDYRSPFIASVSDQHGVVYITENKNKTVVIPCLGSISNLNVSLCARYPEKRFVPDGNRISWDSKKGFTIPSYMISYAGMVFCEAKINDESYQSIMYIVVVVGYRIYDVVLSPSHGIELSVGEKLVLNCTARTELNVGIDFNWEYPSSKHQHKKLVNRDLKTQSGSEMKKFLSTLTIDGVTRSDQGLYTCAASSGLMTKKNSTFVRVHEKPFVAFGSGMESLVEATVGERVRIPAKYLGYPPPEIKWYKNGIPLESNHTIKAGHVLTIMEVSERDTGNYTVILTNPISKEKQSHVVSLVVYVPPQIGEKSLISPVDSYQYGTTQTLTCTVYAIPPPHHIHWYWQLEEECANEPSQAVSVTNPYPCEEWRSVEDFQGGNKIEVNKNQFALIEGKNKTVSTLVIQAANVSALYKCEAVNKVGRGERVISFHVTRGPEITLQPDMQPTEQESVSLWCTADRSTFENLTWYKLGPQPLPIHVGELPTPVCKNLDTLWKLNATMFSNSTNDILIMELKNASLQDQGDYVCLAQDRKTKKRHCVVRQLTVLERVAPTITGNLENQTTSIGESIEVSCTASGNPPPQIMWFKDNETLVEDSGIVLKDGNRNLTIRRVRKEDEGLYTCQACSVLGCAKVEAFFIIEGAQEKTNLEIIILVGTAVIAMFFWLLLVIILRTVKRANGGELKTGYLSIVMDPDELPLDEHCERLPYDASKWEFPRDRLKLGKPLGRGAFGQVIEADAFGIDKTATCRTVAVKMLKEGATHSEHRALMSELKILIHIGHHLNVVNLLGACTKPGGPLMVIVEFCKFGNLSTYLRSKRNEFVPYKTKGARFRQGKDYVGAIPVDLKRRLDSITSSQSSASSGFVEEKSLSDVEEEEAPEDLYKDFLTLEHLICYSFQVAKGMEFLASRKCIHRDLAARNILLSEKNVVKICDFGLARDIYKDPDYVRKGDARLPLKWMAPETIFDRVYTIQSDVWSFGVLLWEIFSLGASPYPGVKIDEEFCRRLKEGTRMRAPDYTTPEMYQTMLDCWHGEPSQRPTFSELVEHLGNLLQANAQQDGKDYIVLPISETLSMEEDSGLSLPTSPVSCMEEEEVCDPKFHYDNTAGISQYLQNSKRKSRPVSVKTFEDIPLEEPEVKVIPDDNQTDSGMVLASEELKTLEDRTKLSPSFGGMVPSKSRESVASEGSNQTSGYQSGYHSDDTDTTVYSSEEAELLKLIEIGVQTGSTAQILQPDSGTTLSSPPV

For the substance “CT23: negative control, C-terminal 23-amino acid peptide, residues 1650 to 1672 of KIF13B (RVRASELRSFSRMLAGDPGCSPG)”, the VEGFR2 binding entry is “did not interact with VEGFR2”.

(Values after US11299524B2, “KIF13B-derived peptide and method of inhibiting angiogenesis” (THE BOARD OF TRUSTEES OF THE UNIVERSITY OF ILLINOIS, priority 2016, dated 2022).)
